Results reported in the supplement of paper PMC9170038.

System: MS2 coat protein
Test: apparent KD of MS2 coat protein; designed switch direction (-1 OFF switch, 1 ON switch): 1; higher = weaker reporter binding
Method in brief: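 Stalled E. coli RNA polymerase transcribed designed RNA switches on Illumina chips, which were then titrated with SNAP-549-labelled MS2 coat protein, doubling from 0.7 or 1.5 nM to 3 µM. Steps lasted from 0.8–1.5 h at the lowest concentration to 10–20 min at the highest. The apparent KD is each design's median over clusters of curve-fitted normalised fluorescence.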

[1] = input ligand: microRNA oligo, concentration not stated
[2] = Eterna round: R95, input ligand: FMN 200 uM
[3] = Eterna round: R95, input ligand: microRNA oligo, concentration not stated
[4] = Eterna round: R95, input ligand: none

Sequence	apparent KD of MS2 coat protein (input ligand: FMN 200 uM) [nM]	apparent KD of MS2 coat protein [1] [nM]	apparent KD of MS2 coat protein (input ligand: none) [nM]	apparent KD of MS2 coat protein [2] [nM]	apparent KD of MS2 coat protein [3] [nM]	apparent KD of MS2 coat protein [4] [nM]
GUGGCGGGUUGAGGAUAUUGGUUGCCUCUGUUUUACAUGAGGAUCACCCAUGUGGGUUGCGGUUUCGAGAAGGGAGGUUGCUGG [salish99_SSNG2_r04_054] (Eterna round: R96, puzzle: Same State NG 2)	323	420	399			
GUGGUCAGACAUGAGGAUCACCCAUGUGGAAUAAAUAACGACUAGGAUAUAUAAUAUAGGAUAUAAUAGAAGGAGUGAUUGGUG (Eterna round: R96, puzzle: Same State NG 3)	72.3	49.5	58.8			
GUGGUCAGACAUGAGGAUCACCCAUGUGGAAUAAAUAACGGACAGGAUAUUGAAUAUAGGAUAUACAAGAAGGGUUGAUUGGUG (Eterna round: R96, puzzle: Same State NG 3)	83.6	47.7	73.9			
GUGGUCAGACAUGAGGAUCACCCAUGUGGAAUAAAUAAGGAAGAGGAUAUCGAAUAUAGGAUAUACGAGAAGGUUUGGUUGGUG (Eterna round: R96, puzzle: Same State NG 3)	117	77.5	94.6			
GUGGUCAGACAUGAGGAUCACCCAUGUGGAAUAAAUAAGGGUUAGGAUAUCGAAUAUAGGAUAUACGAGAAGGGAUGGUUGGUG (Eterna round: R96, puzzle: Same State NG 3)	135	95.3	109			
GUGGUCAGACAUGAGGAUCACCCAUGUGGAAUAAAUAAGGUUUAGGAUAUGGAAUAUAGGAUAUACCAGAAGGAAGGGUUGGUG (Eterna round: R96, puzzle: Same State NG 3)		95.2				
GUGGUCCUCACAGGAUAUCAGCGGCCUUCACGCUGAGAAGGGUGACUGGGCUACAAGGCUAUAGACAUGAGGAUCACCCAUGUA [Direbe] (Eterna round: R96, puzzle: Same State NG 1)	194	110	194			
GUUAAACAUGAGGAUCACCCAUGUCAAUGUAGUCGAGGAUAUGGGCAGCUAUGAGGCGUACUAGAAGGCGAUGAGU [Mat - Same State 1 - Mod of JL - D14] (puzzle: Same State 1)				38.6	133	150
GUUAAACAUGAGGAUCACCCAUGUCAAUGUAGUCGAGGAUAUGGGUAGCUAUGAGGCGUACUAGAAGGCGAGGAGU [Mat - Same State 1 - Mod of JL - D16] (puzzle: Same State 1)				194	57.1	164
GUUACAUGAGGAUCACCCAUGUAUGUGUGGGAGUAAGUGUCUUAGGAUAUCUAGUAUUCAAUUUAAGAGAAGGAAGAUUGUUGU [JMF's solution 58] (Eterna round: R96, puzzle: Same State NG 3)	109	64.2	93.9			
GUUACAUGAGGAUCACCCAUGUAUGUGUGGGAGUAAGUGUCUUAGGAUAUCUAGUAUUUAAUUAAAGAGAAGGAAGAUUGUUGU [JMF's solution 66] (Eterna round: R96, puzzle: Same State NG 3)	126	74.6	116			
GUUACAUGAGGAUCACCCAUGUAUGUGUGGGAGUAAGUGUCUUAGGAUAUCUAUAAUUUAAAUUAAGAGAAGGAAGAUUGUUGU [JMF's solution 10] (Eterna round: R96, puzzle: Same State NG 3)	121	69.4	115			
GUUACAUGAGGAUCACCCAUGUAUGUGUGGGAGUAAGUGUCUUAGGAUAUCUAUCAUUUGAUUUAAGAGAAGGAAGAUUGUUGU [JMF's solution 94] (Eterna round: R96, puzzle: Same State NG 3)	116	96.1	115			
GUUACAUGAGGAUCACCCAUGUAUGUGUGGGAGUAAGUGUCUUAGGAUAUCUAUUAUUUAAUUAAAGAGAAGGAAGAUUGUUGU [JMF's solution 25] (Eterna round: R96, puzzle: Same State NG 3)	115	81.2	102			
GUUACAUGAGGAUCACCCAUGUAUGUGUGGGAGUAAGUGUCUUAGGAUAUCUAUUAUUUAAUUGAAGAGAAGGAAGAUUGUUGU [JMF's solution 26] (Eterna round: R96, puzzle: Same State NG 3)	160	95	112			
GUUACAUGAGGAUCACCCAUGUAUGUGUGGGAGUAAGUGUCUUAGGAUAUCUAUUGUUUAAAUUAAGAGAAGGAAGAUUGUUGU [JMF's solution 13] (Eterna round: R96, puzzle: Same State NG 3)	102	84.3	117			

Sequence	apparent KD of MS2 coat protein (input ligand: FMN 200 uM) [nM]	apparent KD of MS2 coat protein [1] [nM]	apparent KD of MS2 coat protein (input ligand: none) [nM]	apparent KD of MS2 coat protein [2] [nM]	apparent KD of MS2 coat protein [3] [nM]	apparent KD of MS2 coat protein [4] [nM]
GUUACAUGAGGAUCACCCAUGUAUGUGUGGGAGUAAGUGUCUUAGGAUAUCUGUUAUCUAAUUUAAGAGAAGGAAGAUUGUUGU [JMF's solution 35] (Eterna round: R96, puzzle: Same State NG 3)	162	53.4	87.2			
GUUACAUGAGGAUCACCCAUGUAUGUGUGGGAGUAAGUGUCUUAGGAUAUCUGUUAUGUAAUUUAAGAGAAGGAAGAUUGUUGU [JMF's solution 34] (Eterna round: R96, puzzle: Same State NG 3)	282	300	296			
GUUACAUGAGGAUCACCCAUGUGUGUGUGGGAGUAAGUGUCUUAGGAUAUCUAUGAUUUAAGUUAAGAGAAGGAAGAUUGUUGU [SS-NG3-LRO01] (Eterna round: R96, puzzle: Same State NG 3)	479	261	395			
GUUAGGAAUCUAGCAAACAUGAGGAUCACCCAUGUUAGUGGGAAGGAUAUGGUACAGAAACUGUACCAGAAGGUCUUAUUGUUU [Omei SS(NG) 3 AV9] (Eterna round: R96, puzzle: Same State NG 3)	580	403	439			
GUUAUACAUGAGGAUCACCCAUGUCAAUGUAGUCGAGGAUAUGGGCAGCUAUGAGGCGUACUAGAAGGCGAAGAGG [JL-ss1-3.11 ViennaUCT mod] (puzzle: Same State 1)				81.6	234	197
GUUAUACAUGAGGAUCACCCAUGUCAAUGUAGUCGAGGAUAUGGGUAGCUAUGAGGCGUACUAGAAGGCGAGGAGU [JL-ss1-3.16 ViennaUCT mod] (Eterna round: R96, puzzle: Same State 1)	503	246	477			
GUUAUACAUGAGGAUCACCCAUGUCAAUGUAGUCGAGGAUAUGGGUAGCUAUGAGGCGUACUAGAAGGCGAGGAGU [JL-ss1-3.16 ViennaUCT mod] (puzzle: Same State 1)					90.4	
GUUCCAAGGUGAGGAUAUGCAGAGGAUCACCCUGUAGAAGGCAUCAGGUGAGGAUAUGCAGAGGAUCACCCUGUAGAAGGCAUC [pwkr ssNG DX.10] (Eterna round: R96, puzzle: Same State NG 1)	105	180	295			
GUUGAGAAAUAAGGAUAUGCAUGGAAGACACAUGAGGAUCACCCAUGUGGGAGGGAAACCAGGAGGUAGAAGGUAUUGGGAAAC [AK SSNG2-V2-23.1] (Eterna round: R96, puzzle: Same State NG 2)	43.8	28.7	49.1			
UAAAUGAAGUAAGGAUAUACAUGAGGAUCACUCGUAGAAGGUACUAUACAUGAGGAUCACCCAUGUGCCGGUCAGAAGACUGGA [Mat - Same State NG 1 - JL mod - D6] (Eterna round: R96, puzzle: Same State NG 1)	804	533	943			
UAACGCGCAUGCAAGGAUAUGUGCAGAGCUACAUGAGGAUCACCCAUGUGGUUAUGCUAUUGAAAACAGAAGGUGCCCUCGCUCA [Ceties] (Eterna round: R96, puzzle: Same State 2)	20.7	16.4	22.7			
UAAGUAUGUUGAGGAUAUUAUGUUUAGUGUGAUGACAUGAGGAUCACCCAUGUGUUAUGAGUUUUUAAGAAGGCAACAUACUUA [JR_SSNG2_Sub091] (Eterna round: R96, puzzle: Same State NG 2)	35.1	41.7	55.2			
UACAAUCUAUCUGAGGAUAUCAUGAACAAAACAUGAGGAUCACCCAUGUGCAGGAAAACUGCAUAUGAGAAGGCAGAUAGAUUGU [Mat - Same State 2 - Mod - D22] (puzzle: Same State 2)				51	1560	876
UACAAUCUAUCUGAGGAUAUCAUGAAUAUAACAUGAGGAUCACCCAUGUGCAGGAAAACUGCAUAUGAGAAGGCAGAUAGAUUGU [salish99_ss2_r3_068] (puzzle: Same State 2)				61.3	49.2	109
UACAAUCUAUCUGAGGAUAUCAUGAAUUAUACAUGAGGAUCACCCAUGUGCAGGAAAACUGCAUAUGAGAAGGCAGAUAGAUUGU [salish99_ss2_r3_062] (puzzle: Same State 2)				63.4	43.6	183
